In patent US20260139001A1 (Harvard, published 2026):

How the values were obtained:
[1] = target: T1, SARS-CoV-2 Spike RBD, Wuhan (SARS-CoV-2, UniProt P0DTC2 319-541)
[2] = target: T1, SARS-CoV-2 Spike RBD, Wuhan; remark: listed apart in the source

B1: VHH72 wt (VHH)
VHH: QVQLQESGGGLVQAGGSLRLSCAASGRTFSEYAMGWFRQAPGKEREFVATISWSGGSTYYTDSVKGRFTISRDNAKNTVYLQMNSLKPDDTAVYYCAAAGLGTVVSEWDYDYDYWGQGTQVTVSS
In the case of B1, the Kd [1] is reported as 45 nM.

B2: VHH72 NoK wt (VHH)
VHH: QVQLQESGGGLVQAGGSLRLSCAASGRTFSEYAMGWFRQAPGREREFVATISWSGGSTYYTDSVRGRFTISRDNARNTVYLQMNSLRPDDTAVYYCAAAGLGTVVSEWDYDYDYWGQGTQVTVSS
B2 gave a Kd [1] of 75 nM.

B3: VHH72 G56MDCcC (VHH)
VHH: QVQLQESGGGLVQAGGSLRLSCAASGRTFSEYAMGWFRQAPGKEREFVATISWSGCSTYYTDSVKGRFTISRDNAKNTVYLQMNSLKPDDTAVYYCAAAGLGTVVSEWDYDYDYWGQGTQVTVSS
With B3 the EC50 [2] was 1100 nM.

B4: LCB3-NS (LCB3 H19aNBDC) (designed binder)
chain: MNDDELHMLMTDLVYEALCFAKDEEIKKRVFQLFELADKAYKNNDRQKLEKVVEELKELLERLLS
Work on B4 yielded an EC50 [2] of 6400 nM.
